Reference: the nanobody polyreactivity screen of Harvey et al. (2022)

assay: yeast display, Sf9 membrane polyspecificity reagent, FACS + sequencing; frameworks hold sequencing errors
Method in brief: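 Sorting gates, low and high (top ~1%), were placed on anti-HA fluorescence to track expression and on streptavidin fluorescence to track reagent binding. A clone's polyreactivity label is taken from the gate it came out of. The reagent was 10% biotinylated, detergent-solubilized Sf9 membrane, applied for 1 hour at 4 °C to galactose-induced yeast display cells.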

Row | Sequence | polyreactivity (PSR sort gate)
1 | QVQLVESGGGLVQAGGSLRLSCAASGFTFGNNAMGWYRQAPGKERELVAGISRTGGRTYYSDSVKGRFTISRDNAKKTVYLKMNSLKPEDTAVYYCNAVSTLYTGYDYWGQGTQVTVSS | high polyreactivity
2 | QVQLVESGGGLVQAGGSLRLSCAASGFTFGPYAMGWYRQAPGKERELVAAISQSGGRTSYADSVKGRFTISRDNAKNTVYLQMNSLKPEDTSVYYCAKRAYGYRSIYRMDYWGQGTQVTVSS | high polyreactivity
3 | QVQLVESGGGLVQAGGSLRLSCAASGFTFGQYAMGWYRQAPGKERELVAAISWSGGSTYYADSVKGRFTISRDNAKNTVYLQMNSLKPEDTAVYYCGEDLGDYWGQGTQVTVSS | high polyreactivity
4 | QVQLVESGGGLVQAGGSLRLSCAASGFTFGRNAMGWYRPAPGKEMELDATISKSGGSTYYEDSVKGRFTISRDNAKNTVYLQMYSLKPEDSAVYYCAARSRRLPGDYWGQATQVTVSS | low polyreactivity
5 | QVQLVESGGGLVQAGGSLRLSCAASGFTFGRNAMGWYRQAPGKEREFVAAISKSGTSTYYADSVKGRFTISRDNAKNTVYLQMNSLKPEDTAVYYCARTIYAKRWDFDYWGQGTQVTVSS | low polyreactivity
6 | QVQLVESGGGLVQAGGSLRLSCAASGFTFGRNAMGWYRQAPGKERELVARITTGGSTNYADSVKGRFTISRDHAKNTVDLQMNRLKPEDTAVYDCAATYRSLALFWTYGYWGQGTQVTVSS | low polyreactivity
7 | QVQLVESGGGLVQAGGSLRLSCAASGFTFGRYAMGWYIQAPGKERELVAAINWSGTSTYYADSVKGRFTISRDNSKNTVYLQLNILKPEDTAVYYCAVRESGYHTTLYYWGQGTQVTVSS | high polyreactivity
8 | QVQLVESGGGLVQAGGSLRLSCAASGFTFGRYAMGWYRQAPGKERELVAGITWSGGSTSYADSVKGRFTISRDNAKNTVYLQMNSLKPEDTAVYYCATRARYTRVHGRRYAYDYWGQGTQVTVSS | high polyreactivity
9 | QVQLVESGGGLVQAGGSLRLSCAASGFTFGSNAMGWYRQAPGKERELVAAISWSGGRTYYADSVKGRFTISRDNAKNTVYLQMNSLKPEDTAVYYCNKQYVKPWYRGYYYWGQGTQVNVSS | high polyreactivity
10 | QVQLVESGGGLVQAGGSLRLSCAASGFTFGSYAMGWYRQAPGKEREFVAAISLGGARTYYADSVKGRFTISRDNAKNTVYLQMNSLKPEYTAVYDCAATVRGVGYRYYYWGQGTQVTVSS | high polyreactivity
11 | QVQLVESGGGLVQAGGSLRLSCAASGFTFGSYAMGWYRQAPGKERELVAAISSRGGSTYYADSVKGRFTISRDNAKNTVYLQMNSLKPEDTAVYYCNAGYGYIKQYPDYQSKYDYWGQGTQVTVSS | low polyreactivity
12 | QVQLVESGGGLVQAGGSLRLSCAASGFTFGSYVMGWYRQAPGKERELVADISIRGGSTYYADSVKGRFTISRDNSKNTVYLQMNSLKPEDTAVYYCAASYFPFNSGRKVGYWGQGTQVTVSS | low polyreactivity
13 | QVQLVESGGGLVQAGGSLRLSCAASGFTFGTYTMGWYRQAPGKERELVAAIRSSGGRTYYADSVKGRFTISRDNAKNTVYLQMNSLKPEDTAVYYCAAVLFGYPRTFGTWYDRYYYWGQGTQVTVSS | high polyreactivity
14 | QVQLVESGGGLVQAGGSLRLSCAASGFTFGTYVMGWYRQAPGKERELVARITYGGGRTYYADSVKGRFTISRDNAKNTVYLQMNSLKPEDTAVYYCNARVTYSRYFKGYNYWGQGTQVTVSS | high polyreactivity
15 | QVQLVESGGGLVQAGGSLRLSCAASGFTFGVNAMGWYRQAPGKERELVAAISSSGGRTYYADSVKGRFTISRDNAKNTVYLQMNSLKQEDTAVYYCAARYVYTRGGPLKRDYWGQGTQVTVSS | high polyreactivity
16 | QVQLVESGGGLVQAGGSLRLSCAASGFTFGVNAMGWYRQAPGKERELVAVITSGGNTYYADSVKWRFTISRDNAKNTVYLQMNSLKPEDTAVYYCAAYGRASWERDYWGQGTQVTVSS | low polyreactivity
17 | QVQLVESGGGLVQAGGSLRLSCAASGFTFGVYAMGWYRQAPGKERELVAAISRSSGRTYYADSVKGRFTISRDNAKNTVYLQMNSLKPVDTAVYYCAADLRYYGYYTRFRYYEMDYWGQGTQVTVSS | high polyreactivity
18 | QVQLVESGGGLVQAGGSLRLSCAASGFTFGVYAMGWYRQAPGKERELVAAISTTVGSTYYADSVKGRFTISRDNAKNTVYLQMNSLKPEDTAVYDCAAEYTGYINYYIYEYWGQGTQVTVSS | low polyreactivity
19 | QVQLVESGGGLVQAGGSLRLSCAASGFTFGVYAMGWYRQAPGKERELVAAITSGGGRTYADSVKGRFTISRDNAKNTVYLQMNSLKPEDSAVYYCAAQQGISNGTGVSATNPMDYWGQGTQVTVSS | low polyreactivity
20 | QVQLVESGGGLVQAGGSLRLSCAASGFTFGVYAMGWYRQAPGKERELVATISSSGSTNYADSVKGRFTISRDNAKNTVYLQMNSLKPEDSAVYYCAVYYLYRRRQYYYWGQGTKVTVSS | low polyreactivity
21 | QVQLVESGGGLVQAGGSLRLSCAASGFTFGVYARGWYRQAPGKERELVAAISRSSGRTYYADSVKWRFTISRDNAKNTVYLQMNSLKPEDTAVYYCAADLRYYGYYTRFRYYEMDYWGQGTQVTVSS | high polyreactivity
22 | QVQLVESGGGLVQAGGSLRLSCAASGFTFGWNAMGWYRQAPGKERELVAAITSGGITNYADSVKGRFTISRDNAMNTVYLQMNSLKPEDTAVYYCNARPTSRRSWYYWKGYDYWGQGTQVTVSS | high polyreactivity

Row | Sequence | polyreactivity (PSR sort gate)
23 | QVQLVESGGGLVQAGGSLRLSCAASGFTFGYYAMGWYRQAPGKERELVAAINWSGGRTYYADSVKGRFTISRDNAKNTVYLQMNSLKPEDTAVYYCAASSRTKLYYWGQGTQVTVSS | high polyreactivity
24 | QVQLVESGGGLVQAGGSLRLSCAASGFTFGYYAMGWYRQAPGKERELVAAISKSGGSTYYADSVKGRFTISRDNAKNTVYLQMNSLKPEDCAVYYCAAIASIRGYYYWGQGTQVNVSS | high polyreactivity
25 | QVQLVESGGGLVQAGGSLRLSCAASGFTFGYYAMGWYRQAPGKERELVAAITYSGGSTYYADSVKGRFTISRDNAKNTVYLQMNSLNPEDTAVYYCNAYARRYYYGRWYGEFDYWGQGTQVTLSS | low polyreactivity
26 | QVQLVESGGGLVQAGGSLRLSCAASGFTFGYYAMGWYRQAPGKERELVASISWRGGSTYYADSVKGRFTISRDNAKNTVYLQMNSLKPEDTAVYYCATKYTGPYYRTMNYWGQGTQVTVSS | high polyreactivity
27 | QVQLVESGGGLVQAGGSLRLSCAASGFTFGYYAMGWYRQAPGKERELVASMTVRGGSTYYADSVKGRFTISRDNAKNTVYLQINSLKPEDTAVYYCAAKRYPTWYPSQRSRYDSWGQGTQVTVSS | high polyreactivity
28 | QVQLVESGGGLVQAGGSLRLSCAASGFTFGYYGMGWYRQATGKEMELVAAIDCSGASTYYADSVKGRFTISRDNAKNTVDLQINSLKPEDSAVYYCNADRYLYSLYTYEYDYWGHGTQVTVSS | low polyreactivity
29 | QVQLVESGGGLVQAGGSLRLSCAASGFTFHGYAMGWYRQAPGKERELVAAIRSGDRTYYADSVKGRFTISRDNAKNTVYLQMNSLKPEDTAVYYCAVVYGYLYRYSAKYDYWGQGTQVTVSS | low polyreactivity
30 | QVQLVESGGGLVQAGGSLRLSCAASGFTFHKNAMGWYRQAPGKERELVAGISRRAGSTYYADSVKGRFTISRDNAKNTVYLQMNSLKPEDTAVYYCATDRARTGALYYWGQGTQVTVSS | high polyreactivity
31 | QVQLVESGGGLVQAGGSLRLSCAASGFTFHKYAMGWYRQAPGKERELVAAITSSGGSTYYADSVKGRFTISRDNAKNTVYLQMNSLKPEDTAVYYCNARGGGRKSYDYWGQGTQVTVSS | high polyreactivity
32 | QVQLVESGGGLVQAGGSLRLSCAASGFTFHRNAMGWYRQAPGKERELVAAISTRGGSTAYADSVKGRFTISRDNAKNTVYLQMNSLKPEDTAVYYCNTRYVGQRSTWVDQVRRYDYWGQGTQVTVSS | high polyreactivity
33 | QVQLVESGGGLVQAGGSLRLSCAASGFTFHRNAMGWYRQAPGKERELVAAISTRGGSTAYADSVKGRFTISRDTAKNNVYLQMNSLKPEDTAVYYCNTRYVGQRSTWVDQVRRYDYWGQGTQVTVSS | high polyreactivity
34 | QVQLVESGGGLVQAGGSLRLSCAASGFTFHWNAMGWYRPAPGKERELVAVITSGGSTNYADSVKGRFTISRDNAKNTVYLQMNSLKPEDTAVYYCAKEDGYSQLKTTFDEPGYGSWGQGTQVTVSS | low polyreactivity
35 | QVQLVESGGGLVQAGGSLRLSCAASGFTFHYYAMGWYRQAPGKERELVAAISRGGGNTYYADSVKGRFTISRDNAKNTVYLQMNSLKPEDTAVYYCAADSKYRFSHGLDYWGQGTQVTVSS | high polyreactivity
36 | QVQLVESGGGLVQAGGSLRLSCAASGFTFIPNAMGWYRQAPGKERELVADITWSGGTTYYADSVKGRFTISRDNAKNTVYFQMNSLKPEDTAVYYCNADYLFYAFDYWGQGTQVTVSS | low polyreactivity
37 | QVQLVESGGGLVQAGGSLRLSCAASGFTFISNAMGWYRQAPGKERELVAAISSAGGRTYYADSVKGRFTISRATAKITVYLQMNTLKPEDTEVYYSNADRSLLYSRKIEYDSWGQGTQVTVSS | low polyreactivity
38 | QVQLVESGGGLVQAGGSLRLSCAASGFTFIYYAMGWYRQAPGKERELVAAIRWSGGSTYYADSVKGRFTISRDNAKNTVYLQMNSLKPEDTAVYYCAASWYWFAQKRVYYWGQGTQVTVSS | high polyreactivity
39 | QVQLVESGGGLVQAGGSLRLSCAASGFTFIYYAMGWYRQAPGKERELVAAITSGGNTYYADSVKGRFTISRDNAKNTVYFQMNSLKPEDTAVYYCNKVPHREWVGGYDYWGQGTQVTVSS | low polyreactivity
40 | QVQLVESGGGLVQAGGSLRLSCAASGFTFKGNAMGWKRPAPGKERELVAGISRSGRTYYADSVKGRFTISRDNAKNTVYLQMNSLKPEDTAVYYCNVVYTYWRYYRWREYDYWGQGTQVTVSS | high polyreactivity
41 | QVQLVESGGGLVQAGGSLRLSCAASGFTFKKNAMGWYRPAPGKERELVAAISRSGGITYYADSVKGRFTISRDNAKNTVYLQMNSLKPEDTAVSYCATQTYRTPAYPAYGYWGQGTQVTVSS | high polyreactivity
42 | QVQLVESGGGLVQAGGSLRLSCAASGFTFKLYAMGWYRQAPGKERELVAAISSSGGRTYYADSVKGRFTISRDNAKYNVYLQMNSLKPEDTAVYYCNAVRTVNDYHYDYWGQGTQVTVSS | high polyreactivity
43 | QVQLVESGGGLVQAGGSLRLSCAASGFTFKPYTMGWYRQAPGKERELVAAISRSGGSTYYADSVKGRFTISRDNAKNTVYLQMNSLKPEDTAVYYCAKRGNSWYLGGSWGQGTQVTVSS | high polyreactivity
